Measured values: the supplement of paper PMC10567573

B1: MMP1 (parent)
chain: FVRGDHRDNSPFDGPGGNLAHAFQ

Variants of: B1
Assay: protein stability index of a GFP-peptide fusion (GPS, HEK-293T) (PSI 1-6); higher = more stable
Conditions: c terminus: a fixed tail appended
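Note: lentivirally expressed fusions sorted by FACS into six bins by GFP to DsRed ratio, PSI derived from sequencing read proportions per bin multiplied by bin number.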

Row | Variant | protein stability index
1 | FVRGDHRDNSPFDGPGGNYAHAFQ [L19Y] | 1.64
2 | FVRGDHRDNSPFDGPGGNSAHAFQ [L19S] | 1.15
3 | FVRGDHRDNSPFDEPGGNLAHAFQ [G14E] | 2.06
4 | FVRGDHRDNSPFDVPGGNLAHAFQ [G14V] | 3.45
5 | FVRGDHRDNSPFDRPGGNLAHAFQ [G14R] | 1.6
6 | FVRGDHRDNSPFDIPGGNLAHAFQ [G14I] | 2.51
7 | FVRGDHRDNSPFDFPGGNLAHAFQ [G14F] | 2.93
8 | FVRGDHRDNSPFDHPGGNLAHAFQ [G14H] | 1.39
9 | FVRGDHRDNSPFDYPGGNLAHAFQ [G14Y] | 2.2
10 | FVRGDHRDNSPFDKPGGNLAHAFQ [G14K] | 1.77
11 | FVRGDERDNSPFDGPGGNLAHAFQ [H6E] | 1.76
12 | FVRGDQRDNSPFDGPGGNLAHAFQ [H6Q] | 1.42
13 | FVRGDLRDNSPFDGPGGNLAHAFQ [H6L] | 2.64
14 | FVRGDTRDNSPFDGPGGNLAHAFQ [H6T] | 1.58
15 | FVRGDSRDNSPFDGPGGNLAHAFQ [H6S] | 1.85
16 | FVRGDRRDNSPFDGPGGNLAHAFQ [H6R] | 1.99
17 | FVRGDHRDNSPFDGPGGNLVHAFQ [A20V] | 1.99
18 | FVRGDHRDNSPFDGPGGNLLHAFQ [A20L] | 2.49
19 | FVRGDHRDNSPFDGPGGNLIHAFQ [A20I] | 2.04
20 | FVRGDHRDNSPFDGPGGNLCHAFQ [A20C] | 2.69
21 | FVRGDHRDNSPFDGPGGNLGHAFQ [A20G] | 1.92
22 | FVRGDHRDNSPFDGPGGNLRHAFQ [A20R] | 1.43
23 | FVRGDHRDNSPFDGPGGNLMHAFQ [A20M] | 1.88
24 | FVRGDHRDNSPFDGPGGNLNHAFQ [A20N] | 1.76

Row | Variant | protein stability index
25 | FVRGDHRDNSPFDGPGGNLTHAFQ [A20T] | 3.31
26 | FVRGDHRDNSPFDGPGGNLDHAFQ [A20D] | 1.74
27 | FVRGDHRDNSPFDGPGGNLAHAFY [Q24Y] | 3.94
28 | FVRGDHRDNSPFDGPGGNLAHAFR [Q24R] | 1.63
29 | FVRGDHRDNSPFDGPGGNLAHAFS [Q24S] | 1.02
30 | FVRGDHRDNSPFDGPGGNLAHAFE [Q24E] | 3.81
31 | FVRGDHRDNSPFDGPGGNLAHAFN [Q24N] | 1.62
32 | FVRGDHRDNSPFDGPGGNLAHAFP [Q24P] | 1.97
33 | FVRGDHRDNSPFDGPGGNLAHAFG [Q24G] | 1.99
34 | FVRGDHRDNSPFDGPGGNLAHAFL [Q24L] | 1.93
35 | FVRGDHRDNSPFDGPGGNLAHAFT [Q24T] | 3.41
36 | FVRGDHRYNSPFDGPGGNLAHAFQ [D8Y] | 3.24
37 | FVRGDHRVNSPFDGPGGNLAHAFQ [D8V] | 2.25
38 | FVRGDHRMNSPFDGPGGNLAHAFQ [D8M] | 3.46
39 | FVRGDHRNNSPFDGPGGNLAHAFQ [D8N] | 2.68
40 | FVRGDHRPNSPFDGPGGNLAHAFQ [D8P] | 2.12
41 | FVRGDHRRNSPFDGPGGNLAHAFQ [D8R] | 1.62
42 | FVRGDHRINSPFDGPGGNLAHAFQ [D8I] | 1.87
43 | FVRGDHRDNSPFDGPGGNLAHYFQ [A22Y] | 2.34
44 | FVRGDHRDNSPFDGPGGNLAHKFQ [A22K] | 2.42
45 | FVRGDHRDNSPFDGPGGNLAHSFQ [A22S] | 1.91
46 | FVRGDHRDNSPFDGPGGNLAHFFQ [A22F] | 2.25
47 | FVRGDHRDNSPFDGPGGNLAHIFQ [A22I] | 2.06
48 | FVRGDHRDNSPFDGPGGNLAHVFQ [A22V] | 1.53

Row | Variant | protein stability index
49 | FVRGDHRDNSPFDGPGGNLAHCFQ [A22C] | 1.98
50 | FVRGDHRDNSPFDGPGGNLAHTFQ [A22T] | 2.31
51 | FVRGDHRDNSPFDGPGGNLAHWFQ [A22W] | 1.68
52 | FVRGDHRDNSPFDGPGGNLAHNFQ [A22N] | 1.75
53 | FVRGDHRDNSPFAGPGGNLAHAFQ [D13A] | 1.37
54 | FVRGDHRDNSPFGGPGGNLAHAFQ [D13G] | 2.6
55 | FVRGDHRDNSPFMGPGGNLAHAFQ [D13M] | 1.03
56 | FVRGDHRDNSPFHGPGGNLAHAFQ [D13H] | 3.02
57 | FVRGDHRDNSPFSGPGGNLAHAFQ [D13S] | 2.56
58 | FVRGDHRDNSPFLGPGGNLAHAFQ [D13L] | 1.47
59 | FVRGDHRDNSPFEGPGGNLAHAFQ [D13E] | 2.57
60 | FVRGDHRDNSPFDGPNGNLAHAFQ [G16N] | 1.69
61 | FVRGDHRDNSPFDGPHGNLAHAFQ [G16H] | 1.87
62 | FVRGDHRDNSPFDGPCGNLAHAFQ [G16C] | 2.63
63 | FVRGDHRDNSPFDGPWGNLAHAFQ [G16W] | 3.43
64 | FWRGDHRDNSPFDGPGGNLAHAFQ [V2W] | 2.25
65 | FNRGDHRDNSPFDGPGGNLAHAFQ [V2N] | 3.53
66 | FYRGDHRDNSPFDGPGGNLAHAFQ [V2Y] | 3.15
67 | FKRGDHRDNSPFDGPGGNLAHAFQ [V2K] | 3.1
68 | FARGDHRDNSPFDGPGGNLAHAFQ [V2A] | 1.66
69 | FSRGDHRDNSPFDGPGGNLAHAFQ [V2S] | 2.76
70 | FFRGDHRDNSPFDGPGGNLAHAFQ [V2F] | 2.61
71 | FDRGDHRDNSPFDGPGGNLAHAFQ [V2D] | 3.58
72 | FQRGDHRDNSPFDGPGGNLAHAFQ [V2Q] | 2.75

Row | Variant | protein stability index
73 | FLRGDHRDNSPFDGPGGNLAHAFQ [V2L] | 3.03
74 | FHRGDHRDNSPFDGPGGNLAHAFQ [V2H] | 2.37
75 | FVRGDHKDNSPFDGPGGNLAHAFQ [R7K] | 1.68
76 | FVRGDHLDNSPFDGPGGNLAHAFQ [R7L] | 3.54
77 | FVRGDHMDNSPFDGPGGNLAHAFQ [R7M] | 1.78
78 | FVRGDHEDNSPFDGPGGNLAHAFQ [R7E] | 1.91
79 | FVRGDHTDNSPFDGPGGNLAHAFQ [R7T] | 2.18
80 | FVRGDHCDNSPFDGPGGNLAHAFQ [R7C] | 1.82
81 | FVRGDHADNSPFDGPGGNLAHAFQ [R7A] | 2.02
82 | FVRGDHFDNSPFDGPGGNLAHAFQ [R7F] | 2.83
83 | FVRGDHPDNSPFDGPGGNLAHAFQ [R7P] | 2.8
84 | FVRGDHHDNSPFDGPGGNLAHAFQ [R7H] | 2.91
85 | FVRGDHRDNSPFDGPGGNLAHAEQ [F23E] | 2.38
86 | FVRGDHRDNSPFDGPGGNLAHAIQ [F23I] | 2.33
87 | FVRGDHRDNSPFDGPGGNLAHAQQ [F23Q] | 2.11
88 | FVRGDHRDNSPFDGPGGNLAHADQ [F23D] | 1.9
89 | FVRGDHRDNSPFDGPGGNLAHATQ [F23T] | 1.56
90 | FVRGDHRDNSPFDGPGGNLAHAAQ [F23A] | 1.78
91 | FVRGDHRDNSPFDGPGGNLAHAPQ [F23P] | 2.63
92 | FVRGDHRDNSPFDGPGGNLAHAHQ [F23H] | 2.08
93 | FVRGDHRDNSPFDGPGGNLAHAKQ [F23K] | 2.45
94 | FVRGDHRDNSPFDGPGGNLAHAYQ [F23Y] | 2.12
